Key:
Assay in all cases: cell-based or functional assay
[1] = target: endogenous angiomotin of bovine capillary endothelial (BCE) cells (p80- and p130-isoforms) (bovine)
[2] = target: p130-angiomotin (Homo sapiens (Human)) (UniProt Q4VCS5)
[3] = target: p80-angiomotin (Homo sapiens (Human)) (UniProt Q4VCS5)

- decrease in bFGF-stimulated migration of hTERT+-BCE cells, migration chamber assay [1]: 85%
- decrease in bFGF-stimulated migration of MAE cells expressing p130-angiomotin, Boyden chamber, angiostatin 5 ug/ml [2]: 160%
- decrease in motility of CHO cells expressing p130-angiomotin, Boyden chamber [2]: 50%
- invasion of Matrigel by human cytotrophoblasts, angiostatin 5 ug/ml [2]: 3 fold
- decrease in bFGF-stimulated migration of MAE cells expressing p80-angiomotin, Boyden chamber, angiostatin 5 ug/ml [3]: 175%
- decrease in motility of CHO cells expressing p80-angiomotin, Boyden chamber [3]: 50%
- invasion of Matrigel by human cytotrophoblasts, angiostatin 5 ug/ml [3]: 3 fold
Substance: Human angiostatin (kringle 1-4) (from UniProt P00747 99-459) (ligand)

— patent US20090060915A1
